Values of other authors as cited in article PMC3086721.

Target: ubiquitin (Homo sapiens) (UniProt P0CG47)

Sequence of E2-25K UBA (P61086 157-200): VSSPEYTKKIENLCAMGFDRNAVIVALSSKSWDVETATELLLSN

- Kd: 400 µM
Substance: E2-25K UBA (from UniProt P61086)
